US20260049138A1 (Chugai, published 2026)
Where a chain is given by its changes, count along the chain named. Names may count otherwise.

T1: human CD154 (human, UniProt P29965 113-261, limits assumed, biotin-labeled)
T1 construct: also called biotin-labeled human CD154; biotinylated human CD154
T1 sequence (looked up): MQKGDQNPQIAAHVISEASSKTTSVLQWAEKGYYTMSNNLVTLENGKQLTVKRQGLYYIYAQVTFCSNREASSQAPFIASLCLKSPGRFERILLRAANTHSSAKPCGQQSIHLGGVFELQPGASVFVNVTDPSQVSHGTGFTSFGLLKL

B1: 154R4B07#1 one-arm antibody (antibody, human IgG1, kappa, L234A L235A, N297A)
heavy: QVQLVESGGGLVQPGRSLRLSCAASGFTFSNAWMHWVRQAPGKGLEWVAQIKDRGNNYAAYYAESVKGRFTISRDDSKNSIYLQMNSLKTEDTAVYYCRYVHYGSYFFASFYFGVDIWGQGTTVTVSSASTKGPSVFPLAPSSKSTSGGTAALGCLVKDYFPEPVTVSWNSGALTSGVHTFPAVLQSSGLYSLSSVVTVPSSSLGTQTYICNVNHKPSNTKVDKKVEPKSCDKTHTCPPCPAPEAAGGPSVFLFPPKPKDTLMISRTPEVTCVVVDVSHEDPEVKFNWYVDGVEVHNAKTKPREEQYASTYRVVSVLTVLHQDWLNGKEYKCKVSNKALPAPIEKTISKAKGQPREPQVYTLPPSRCELTKNQVSLSCAVKGFYPSDIAVEWESNGQPENNYKTTPPVLDSDGSFFLVSKLTVDKSRWQQGNVFSCSVMHEALHNHYTQKSLSLSPDYKDDDDK
chain: EPKSSDKTHTCPPCPAPELLGGPSVFLFPPKPKDTLMISRTPEVTCVVVDVSHEDPEVKFNWYVDGVEVHNAKTKPREEQYNSTYRVVSVLTVLHQDWLNGKEYKCKVSNKALPAPIEKTISKAKGQPREPQVCTLPPSRDELTKNQVSLWCLVKGFYPSDIAVEWESNGQPENNYKTTPPVLDSDGSFFLYSKLTVDKSRWQQGNVFSCSVMHEALHNRYTQKSLSLSP
light: DIVMTQSPLSLPVTPGEPASISCRSSQSLVHSNRNTYLHWYQQKPGQAPRLLIYKVSNRFSGVPDRFSGSGSGTDFTLKISRVEAEDVGVYYCGQGTQVPYTFGQGTKLEIKRTVAAPSVFIFPPSDEQLKSGTASVVCLLNNFYPREAKVQWKVDNALQSGNSQESVTEQDSKDSTYSLSSTLTLSKADYEKHKVYACEVTHQGLSSPVTKSFNRGEC
notes: As m48
B2: 154R3A01#2 one-arm antibody (antibody, human IgG1, kappa, L234A L235A, N297A)
heavy: QVQLVESGGGLVQPGRSLRLSCAASGFTFSNAWMHWVRQAPGKGLEWVAQIKDRVNQYANYYAESVKGRLTISRDDSKNSIYLQMNSLKTEDTAVYYCRYVHYGLTGYFSGQGGVDAWGQGTTVTVSSASTKGPSVFPLAPSSKSTSGGTAALGCLVKDYFPEPVTVSWNSGALTSGVHTFPAVLQSSGLYSLSSVVTVPSSSLGTQTYICNVNHKPSNTKVDKKVEPKSCDKTHTCPPCPAPEAAGGPSVFLFPPKPKDTLMISRTPEVTCVVVDVSHEDPEVKFNWYVDGVEVHNAKTKPREEQYASTYRVVSVLTVLHQDWLNGKEYKCKVSNKALPAPIEKTISKAKGQPREPQVYTLPPSRCELTKNQVSLSCAVKGFYPSDIAVEWESNGQPENNYKTTPPVLDSDGSFFLVSKLTVDKSRWQQGNVFSCSVMHEALHNHYTQKSLSLSPDYKDDDDK
chain: B1 chain
light: B1 light
notes: As m48
B3: 154R3A01#4 one-arm antibody (antibody, human IgG1, kappa, L234A L235A, N297A)
heavy: B2 heavy with S65C, L70F
chain: B1 chain
light: B1 light
notes: As m48
B4: 154R3B01#1 one-arm antibody (antibody, human IgG1, kappa, L234A L235A, N297A)
heavy: QVQLVESGGGLVQPGRSLRLSCAASGFTFSSAWMHWVRQAPGKGLEWVAQIKDKQNQYNAYYAESVKGRFTISRDDSKNSIYLQMNSLKTEDTAVYYCRYVHYATSDGFLPYFGVDAWGQGTTVTVSSASTKGPSVFPLAPSSKSTSGGTAALGCLVKDYFPEPVTVSWNSGALTSGVHTFPAVLQSSGLYSLSSVVTVPSSSLGTQTYICNVNHKPSNTKVDKKVEPKSCDKTHTCPPCPAPEAAGGPSVFLFPPKPKDTLMISRTPEVTCVVVDVSHEDPEVKFNWYVDGVEVHNAKTKPREEQYASTYRVVSVLTVLHQDWLNGKEYKCKVSNKALPAPIEKTISKAKGQPREPQVYTLPPSRCELTKNQVSLSCAVKGFYPSDIAVEWESNGQPENNYKTTPPVLDSDGSFFLVSKLTVDKSRWQQGNVFSCSVMHEALHNHYTQKSLSLSPDYKDDDDK
chain: B1 chain
light: B1 light
notes: As m48
B5: 154R3A01#3 one-arm antibody (antibody, human IgG1, kappa, L234A L235A, N297A)
heavy: B2 heavy with T28A, L70F
chain: B1 chain
light: B1 light
notes: As m48
B6: 154R4F08#1 one-arm antibody (antibody, human IgG1, kappa, L234A L235A, N297A)
heavy: B1 heavy with R16H
chain: B1 chain
light: B1 light
notes: As m48
B7: 154R3A01#1 one-arm antibody (antibody, human IgG1, kappa, L234A L235A, N297A)
heavy: B2 heavy with L70F
chain: B1 chain
light: B1 light
B8: CE115HA000 Y100aG one-arm antibody (antibody, human IgG1, kappa, L234A L235A, N297A, name in Kabat numbering)
heavy: QVQLVESGGGVVQPGRSLRLSCAASGFTFSNAWMHWVRQAPGKGLEWVAQIKAKSNNYATYYAESVKGRFTISRDDSKNSLYLQMNSLKTEDTAVYYCRYVHYGAYGGVDAWGQGTTVTVSSASTKGPSVFPLAPSSKSTSGGTAALGCLVKDYFPEPVTVSWNSGALTSGVHTFPAVLQSSGLYSLSSVVTVPSSSLGTQTYICNVNHKPSNTKVDKKVEPKSCDKTHTCPPCPAPEAAGGPSVFLFPPKPKDTLMISRTPEVTCVVVDVSHEDPEVKFNWYVDGVEVHNAKTKPREEQYASTYRVVSVLTVLHQDWLNGKEYKCKVSNKALPAPIEKTISKAKGQPREPQVYTLPPSRCELTKNQVSLSCAVKGFYPSDIAVEWESNGQPENNYKTTPPVLDSDGSFFLVSKLTVDKSRWQQGNVFSCSVMHEALHNHYTQKSLSLSPDYKDDDDK
chain: B1 chain
light: B1 light
B9: CE115HA000 Y100aF one-arm antibody (antibody, human IgG1, kappa, L234A L235A, N297A, name in Kabat numbering)
heavy: B8 heavy with G107F
chain: B1 chain
light: B1 light
B10: CE115HA000 Y100aL one-arm antibody (antibody, human IgG1, kappa, L234A L235A, N297A, name in Kabat numbering)
heavy: B8 heavy with G107L
chain: B1 chain
light: B1 light
B11: CE115HA000 Y100aK one-arm antibody (antibody, human IgG1, kappa, L234A L235A, N297A, name in Kabat numbering)
heavy: B8 heavy with G107K
chain: B1 chain
light: B1 light
B12: CE115HA000 Y100V one-arm antibody (antibody, human IgG1, kappa, L234A L235A, N297A, name in Kabat numbering)
heavy: B8 heavy with Y106V, G107Y
chain: B1 chain
light: B1 light
B13: CE115HA000 Y100S one-arm antibody (antibody, human IgG1, kappa, L234A L235A, N297A, name in Kabat numbering)
heavy: B8 heavy with Y106S, G107Y
chain: B1 chain
light: B1 light
B14: CE115HA000 Y100aD one-arm antibody (antibody, human IgG1, kappa, L234A L235A, N297A, name in Kabat numbering)
heavy: B8 heavy with G107D
chain: B1 chain
light: B1 light
B15: CE115HA000 Y100aQ one-arm antibody (antibody, human IgG1, kappa, L234A L235A, N297A, name in Kabat numbering)
heavy: B8 heavy with G107Q
chain: B1 chain
light: B1 light
B16: CE115HA000 Y100W one-arm antibody (antibody, human IgG1, kappa, L234A L235A, N297A, name in Kabat numbering)
heavy: B8 heavy with Y106W, G107Y
chain: B1 chain
light: B1 light
B17: CE115HA000 Y100aA one-arm antibody (antibody, human IgG1, kappa, L234A L235A, N297A, name in Kabat numbering)
heavy: B8 heavy with G107A
chain: B1 chain
light: B1 light
B18: CE115HA000 Y100aS one-arm antibody (antibody, human IgG1, kappa, L234A L235A, N297A, name in Kabat numbering)
heavy: B8 heavy with G107S
chain: B1 chain
light: B1 light

Target: T1, human CD154
Test: ECL competition, CD3ε[+]: CD3ε homodimer added as competitor [1]
Protocol: Next, each obtained IgG was evaluated for its binding to CD3 and human CD154 at the same time by the competition method (electrochemiluminescence method (ECL method)).
A TBST solution containing 0.5% BSA (referred to as a blocking solution; the TBST solution was TBS (manufactured by Takara Bio Inc.) supplemented with 0.1% Tween 20) was added at 150 μL/well to streptavidin plate (MSD K.K.), and the plate was incubated at room temperature for 1 hour or longer. After removal of the blocking solution, each well was washed three times with 250 μL of a TBST solution. The antibody-antigen complex solution was added thereto at 50 μL/well, and the plate was incubated at room temperature for 1 hour so that the biotinylated antigen-antibody-detection sulfo-tag antibody complex solution bound via the biotinylated antigen to the streptavidin plate. After removal of the antibody-antigen complex solution, each well was washed three times with a TBST solution, and a solution of 4×READ buffer (MSD K.K.) diluted 2-fold with water was added thereto at 150 μL/well, followed by the detection of the luminescence signal of the sulfo-tag using Sector Imager 2400 (MSD K.K.).

First: B1
Second: B2
The “relative ECL reaction (to no antigen coating)” value of the first is lower: 1 for the first, 4 for the second.

Compared with B3, B4 is higher in “relative ECL reaction (to no antigen coating)” value: 4 for the first, 18 for the second.

Going from B5 to B6, the “relative ECL reaction (to no antigen coating)” value falls from 19 to 1.

With B7 the “relative ECL reaction (to no antigen coating)” value was 21.

Target: T2, CD3ε homodimer protein (human, UniProt P07766 23-126, limits assumed, sulfo-tag or biotin label in the ECL assays; amine-coupled to the chip in SPR)
T2 construct: also called human CD3ε homodimer protein; CD3 (CD3ε)
T2 sequence (P07766 23-126 limits assumed): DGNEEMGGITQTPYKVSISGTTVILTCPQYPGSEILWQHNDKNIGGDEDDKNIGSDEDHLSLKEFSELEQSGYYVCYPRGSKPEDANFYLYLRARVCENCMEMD
Test: SPR Biacore T200; CD3ε homodimer on CM4 chip;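 also: Single-residue variant antibodies injected as analyte over CD3ε homodimer immobilized by amine coupling, run at 25 °C in HBS-EP+ buffer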

Compared with B8, B9 is lower in “ratio of amounts bound Z=Y/X (altered form / CE115HA000)” value: 1.23 for the first, 0.87 for the second.

Compared with B10, B11 is higher in “ratio of amounts bound Z=Y/X (altered form / CE115HA000)” value: 0.48 for the first, 0.9 for the second.

First: B12
Second: B13
The “ratio of amounts bound Z=Y/X (altered form / CE115HA000)” value of the first is lower: 0.6 for the first, 0.81 for the second.

First: B14
Second: B15
The “ratio of amounts bound Z=Y/X (altered form / CE115HA000)” value of the first is lower: 0.31 for the first, 0.56 for the second.

Going from B16 to B17, the “ratio of amounts bound Z=Y/X (altered form / CE115HA000)” value falls from 1.03 to 0.62.

B18 was tested, and the “ratio of amounts bound Z=Y/X (altered form / CE115HA000)” value was 0.64.
